In the case of prostate specific antigen (PSA), the Kcat/Km (Mu-HSSKLQ-AMC) is reported as 23.6 s^-1M^-1, the Km (Mu-HSSKLQ-AMC) is reported as 470 µM and the kcat (Mu-HSSKLQ-AMC) is reported as 0.011 s⁻¹. It also gave a Kcat/Km (Ac-GSSKFQ-AMC) of 86 s^-1M^-1, a Km (Ac-GSSKFQ-AMC) of 666 µM and a kcat (Ac-GSSKFQ-AMC) of 0.057 s⁻¹. The “Kcat against Mu-HSSKLQ-AMC” value (Ac-GSSKYQ-AMC) was “˜10-fold improvement in the Kcat kinetic parameter”, the Kcat/Km (Ac-GSSKYQ-AMC) was 227 s^-1M^-1 and the “Kcat/Km ratio against Mu-HSSKLQ-AMC” value (Ac-GSSKYQ-AMC) was “Kcat/Km ratios that were 10-fold higher than the Mu-HSSKLQ-AMC test peptide”. The Km (Ac-GSSKYQ-AMC) was 500 µM, the kcat (Ac-GSSKYQ-AMC) was 0.113 s⁻¹ and the “Kcat against Mu-HSSKLQ-AMC” value (Ac-GsAKYQ-AMC) was “˜10-fold improvement in the Kcat kinetic parameter”. The Kcat/Km (Ac-GsAKYQ-AMC) was 218 s^-1M^-1, the “Kcat/Km ratio against Mu-HSSKLQ-AMC” value (Ac-GsAKYQ-AMC) was “Kcat/Km ratios that were 10-fold higher than the Mu-HSSKLQ-AMC test peptide” and the Km (Ac-GsAKYQ-AMC) was 653 µM. The kcat (Ac-GsAKYQ-AMC) was 0.143 s⁻¹, the “PSA hydrolysis (release of L12ADT, LC/MS)” value (Mu-HSSKLQ//L12ADT) was “the new prodrug was hydrolyzed dramatically better than the test peptide” and the “PSA hydrolysis (release of L12ADT, LC/MS)” value (Mu-SSKYQ//L12ADT) was “the new prodrug was hydrolyzed dramatically better than the test peptide”. For the same substance, the “Kcat against Mu-HSSKLQ-AMC” value (Ac-GKSQYQ-AMC) was “˜10-fold improvement in the Kcat kinetic parameter”, the Kcat/Km (Ac-GKSQYQ-AMC) was 278 s^-1M^-1 and the “Kcat/Km ratio against Mu-HSSKLQ-AMC” value (Ac-GKSQYQ-AMC) was “Kcat/Km ratios that were 10-fold higher than the Mu-HSSKLQ-AMC test peptide”. For the same substance, the Km (Ac-GKSQYQ-AMC) was 343 µM and the kcat (Ac-GKSQYQ-AMC) was 0.09 s⁻¹.
